In a protein production outcome set (Wang et al. 2014) one finds protein production data, which are given here for 14 sequences.

This series in a line: label from the status in PepcDB records.
Consider “MKFPGQRKSKHYFPVKTRDPLLEQLTQQPQPFATYISGIDQTLVDIEAKVEDELLSRYGLPKGNSTLINDEQAHTLYTELKQNGLISDEFAGGTIGNTVHNYSILADDRSVLFGVMSQNIEVGSYAYRYLCNTSSKVDLNYLQPVDGPIGRCFTLISDCGERTFAISKGAMDKLTPEYIDKDIVQGSSALVLTAYLMRASGGDRITDAAMCAIEYAKAAEVPVVLTLGTRFLIEEDPIWWQNFIKEHVTILAMNEDEGEALTGFRDPLLASEKALEWCDMVLTTAGPIGLYTAGYTDDAEKRETSHTLLPGAIPEFNRYEFSRPKLKSDCENPIKVYAHISPYMGGPEKIGNTNGAGDGALSALLHDLAANTFHKTNVPGSSKHKRDGLCYSSFSQICKYANRVAYEVLAQHSPRLSRGLPEREDSLEESYWER”, for which the protein production entry is on record as “failed”.
With “MKFRTLLVVNKVVVFAKLLSVLQKVEKTAFLILCSEADEEIRLVTKADAFNGLYTSALLRKSEFFEDYRIESKYHNLIGLEFQLSAFEDAIRASSNAAGVIMKLSKKEQACISFHIQTLTSNIIQDVPVRVITPTQIEELAEPNLPPCSGVVLSPLQKIAILIEKFRHVSQSIQLTLQSTQAAELHIKCHSETLEVETCIKGLKIVTLNSEESSSEIEQSTSASVDGRHLSKAMFAAYLIPQRAFCCKLSILNHGNIHWIH” the entry was “failed”; with “MKFSEECRSAAAEWWEGSFVHPFVQGIGDGTLPIDRFKYYVLQDSYYLTHFAKVQSFGAAYAKDLYTTGRMASHAQGTYEAEMALHREFAELLEISEEERKAFKPSPTAYSYTSHMYRSVLSGNFAEILAALLPCYWLYYEVGEKLLHCDPGHPIYQKWIGTYGGDWFRQQVEEQINRFDELAENSTEEVRAKMKENFVISSYYEYQFWGMAYRKEGWSDSAIKEVEECGASRHNG”, “not failed”; with “MKFSVLMSLYIKENPQFLRECFESLVAQTRQADEIVLVFDGVVTPDLEFVVTEFETKLPLKLVKLPQNRGLGKALNEGLLHCDYDWVFRMDTDDICVPDRFEKQVAFIEQHPESIIFGGQIAEFGKNVNDIVAYRNVPTSAQEIIKFTQKRCPFNHMTVAYQKSAVINCGGYEDLQEDYYLWIKLVAQGLYMANLPDILVYARVGNGMVLEHHHHHH”, “not failed”.
As for “MKFTQRLSLRVRLTLIFLILASVTWLLSSFVAWKQTTDNVDELFDTQLMLFAKRLSTLDLNEINAADRMAQTPNKLKHGHVDDDALTFAIFTHDGRMVLNDGDNGEDIPYSYQREGFADGQLVGEDDPWRFVWMTSPDGKYRIVVGQEWEYREDMALAIVAGQLIPWLVALPIMLIIMMVLLGRELAPLNKLALALRMRDPDSEKPLNATGVPSEVRPLVESLNQLFARTHAMMVRERRFTSDAAHELRSPLTALKVQTEVAQLSDDDPQARKKALLQLHSGIDRATRLVDQLLTLSRLDSLDNLQDVAEIPLEDLLQSSVMDIYHTAQQAKIDVRLTLNAHGIKRTGQPLLLSLLVRNLLDNGPGVTPEALARIGERFYRPPGQTATGSGLGLSIVQRIAKLHDMNVEFGNAEQGGFEAKVSW”, the entry is “failed”; as for “MKFYNREKEVAELKRVQELAFTQNSRMIVVTGRRRIGKTSLIKEALKGTPTVYLFIGRKAESILVTDFVKIVRETLSIFVPEGIPTFTNLMQYLFEVGKTRAFNIVIDEFQEFYNIRPDVFSDMQNLWDEYKQETKINLVISGSVYSLMQKIFTDHNEPLFGRADNILCLRAFKIGVLKQIMEDLASGYSNDDLLALYTLTGGIPKYVELFCDNQALTIDKMYDFVFSENSLFIDEGRNLLITEFGKNYGTYFSILSEIANGHYTQGEIESALGGTAIGGYLSKLENVYNLITRERPIFAKPGTKKNVRYVIGDNFLNFWFKYIEQNRSYIELQNFDDLRQLAKADYPTYSGRVLEKYFKQKLAETGGFKEIGSWWETKSSIGKQRINSYEIDIVALKSSGKKALIAEVKRVPENNYSHTVFMEKVEHLKQKEMSKYDIETQVLGLKDMLEHHHHHH”, “failed”; as for “MKGDRHCIVIIDMLNDFIGPNAPLRCPDGEKIVPNLQKLVEFAHENGINVVFVQEAHRKNDADFRVRPVHAVKGTWGSDFIPELRPDEEKGDYIVQKRRHSAFAYTDLDLYLREEKIDTVVVTGVWTNVCVRSTASDALYHAYNVIAISDCCASANEEMHQAGLRDMALFAEVMTLEEYMKEWPNREGAKK”, “not failed”.
On to “MKGDRTLSCMIKTDRGEICIDPAEPILHIIGKKYAIFIVSVLGNDNTRKNFNDLMRAVPGISSTMLSARLHEMNECGLIERHEGDIVTYELTERGREIRKRMLPLIEYLADAD”, for which the protein production entry is given as “failed”.
“MKGENAMEHHTSVLSLMVVVAIAFFVPLLLQRFKLKALPVVVAEIIAGIFVGKSGFNIIEPDIWLQVLSTLGFIFLMFLSGLEIDFSIFKQKGKKNTTNEPNTFQAASIIFLFIFILSYALSLLFVWLGFVDNAMFMTLIISTISLGVVVPTLKENNLGKTAIGQIILLVAVIADLVTMILLAVFVGLNSESGQSMWLLLLLFGAGIVIYFVAKRFKNIPYLDSLKAGSVQIDTRAVFALILILVGLSESVGAENILGAFLAGVLVSLLSPNEDMVEKLDSIGYGFFIPIFFVMVGVNLEVWSIFKEPSSMLMIPILIVGLFISKLLPSLVLRKWYPRNIVLGSAILLTSTLSLVIAAAQIGEKLEIISPSLSVSLILSAVITCIFAPILFKKMFPKVETPKPKVAIIGASRITLPLSLDLKREDYDVTLYMMRQNKINDEEATSHDFPIVKLDDITIASLTEQTAFDADRVVVATSDDEQNLLLAEHAKELGVEHVIASVEDPLLQEKATQEHIAVFSTINSTRILLRALIDKPSLVRLITTANETVREVELRSNKYNGVALRRLPFLGDVLVIQIYRGNKALIPHGDTRLQHGDTLLVTGSKEHIDTLKNILE”: the protein production result is listed as “failed”.
With “MKGGLYMKLTKKQLKEYIEDYKKSDDILINLYIETYEFYCRLRDELKNSDLMIEHTNKAGASNIVKNPLSIELTKTVQTLNNLLKSMGLTAAQRKKIVQEEGGFGDY” the entry was “failed”; with “MKGGTIQISWHDGKPVLTVDFHPISGLLATAGADYDIKLWLINSGQAEKKVPSVSYQSSLTYHGCAVNTIRFSPSGELLASGADGGELFIWKLHPSETNQSWKVHKSLSFHRKDVLDLQWSPDDAYLISGSVDNSCIIWDVNKGSVHQILDAHCHYVQGVAWDPLAKYVASLSSDRTCRIYANKPQTKSKGVEKMNYVCQHVIMKADQQRGDETKTIKTHLFHDETLPSFFRRLSWSPDGSFLLIPAGSFKVSPTSEAVNATYVFSRKDLSRPALQLPGASKPVVVVRFCPVAFKLRGSSSEEGFFKLPYRLVFAIATLNSVYIYDTECVAPIAVLAGLHYAAITDITWSPNASYLALSSQDGYCTLVEFEDKELGEAVSISGLLLVLSLLNLPEPD”, “failed”; with “MKGLERESHFTLNENAMFFECAYSCDNALFLQLDDRSFFITDSRYTQEAKESVQPKNGVLAEVVESSDLVQSAIDLIVKSSVKKLFFDPNQVNLQTYKRLNSALGDKVALEGVPSYHRQKRIIKNEHEIQLLKKSQALNVEAFENFAEYVKKIFDEKESLSERYLQHKVKDFLTREGVYDLSFEPILALNANASKPHALPSAKDFLKAEHSILLDMGIKYERYCSDRTRTAFFDPKDFVFKREQSFKDKERQKIYDIVKEAQEKAISGIRAGMTGKEADSLARGVISDYGYGQYFTHSTGHGIGLDIHELPYISSRSETILEEGMVFSVEPGIYIPGFFGVRIEDLVVIKNSRSELL”, “failed”.
As for “MKGLFKNKSRLPGEIVRQTRDLIALAESEEEETDARNSKRLGICAELCRNIRDLKSILYGNGEAEPVPEACLLLTQEFFRADTLRPLIKSIPKLDLEARKDATQIVANLQKQQVEFRLVASEYLESNLDVIDSLVEGIDHDHELALHYTGMLKECVRHQVVAKYILESKNLEKFFDYVQLPYFDVATDASKIFRELLTRHKSTVAEYLAKNYEWFFAEYNTKLLEKGSYFTKRQASKLLGDVLMDRSNSGVMVKYVSSLDNLRIMMNLLREPTKNIQLEAFHIFKLFVANENKPEDIVAILVANRTKILRLFADLKPEKEDVGFETDKALVMNEIATLSLLDIKTADR”, the entry is “failed”.
With “MKGLLPLAWFLACSVPAVQGGLLDLKSMIEKVTGKNALTNYGFYGCYCGWGGRGTPKDGTDWCCWAHDHCYGRLEEKGCNIRTQSYKYRFAWGVVTCEPGPFCHVNLCACDRKLVYCLKRNLRSYNPQYQYFPNILCS” the entry was “failed”.
